Experiments:
[1] = system: Nc1ncnc2c1ncn2[C@@H]1O[C@H](COP(=O)(O)OP(=O)(O)OP(=O)(O)O)[C@@H](O)[C@H]1O; test: purified protein; format: biochemical, Deinococcus geothermalis; details: ssDNA-dependent (80-nt oligonucleotide, 12.16 μM nucleotides), 11.56 mM MgCl2, 20 mM Tris-HCl pH 7.5, 37 °C, Hill fit, n 2.9
[2] = system: Nc1ncnc2c1ncn2[C@H]1C[C@H](O)[C@@H](COP(=O)(O)OP(=O)(O)OP(=O)(O)O)O1; test: purified protein; format: biochemical, Deinococcus geothermalis; details: ssDNA-dependent (80-nt oligonucleotide, 12.16 μM nucleotides), 11.56 mM MgCl2, 20 mM Tris-HCl pH 7.5, 37 °C, Hill fit, n 1.2

## DgeRecA (Deinococcus geothermalis DSM 11300)
[1]
  Km: 560 ± 18 µM
  kcat: 0.15 ± 0.004 s⁻¹
  kcat/Km: 270 ± 12 M⁻¹ s⁻¹
[2]
  Km: 620 ± 23 µM
  kcat: 0.21 ± 0.007 s⁻¹
  kcat/Km: 330 ± 10 M⁻¹ s⁻¹
